In US20140094385, “SEQUENCE-SPECIFIC ENGINEERED RIBONUCLEASE H AND THE METHOD FOR DETERMINING THE SEQUENCE PREFERENCE OF DNA-RNA HYBRID BINDING PROTEINS” (MIEDZYNARODOWY INSTYUT BIOLOGII MOLEKULARNEJ I KOMORKOWEJ, published 2014):

B1: literature ZfQQR site hybrid (LDNA/LRNA) (DNA:RNA)
DNA: TCACTGGGGAAGAAGAATCCTC
RNA: GAGGAUUCUUCUUCCCCAGUGA
B2: SELEX consensus hybrid (CDNA/CRNA) (DNA:RNA)
DNA: TCACTGGTCGGTGGGAATCCTC
RNA: GAGGAUUCCCACCGACCAGUGA

Molecular target: GST-ZfQQR (zinc finger ZfQQR) (artificial)
Sequence (chain, as listed by the source): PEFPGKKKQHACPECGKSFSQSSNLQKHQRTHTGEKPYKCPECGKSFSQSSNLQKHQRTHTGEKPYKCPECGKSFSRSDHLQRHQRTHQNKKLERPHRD
Test: filter; 25 mM Tris pH 8.0, 100 mM KCl, 20 uM ZnSO4, 2 mM DTT, poly dI-dC, room temperature; protein called zinc finger ZfQQR, GST fusion is the purified form described
Conditions: tags: N-terminal GST (pGEX-4T-1); label: radioactive
Protocol: To confirm that the consensus sequence obtained after five rounds of SELEX is bound by the zinc finger, a constant KD was measured using the nitrocellulose filter binding method. The assay was performed with radioactively labeled substrates described in the literature (LDNA, LRNA) and a consensus sequence (CDNA, CRNA) see FIG. 16:
Binding reaction contained 2 nM of labeled substrate, 2 μg poly dI-dC as a nonspecific competitor, 25 mM Tris pH 8.0, 100 mM KCl, 20 μM ZnSO₄, 2 mM DTT. The binding reaction was incubated for 30 min at room temperature and then filtered immediately through a nitrocellulose filter and washed with 8 volumes of reaction buffer of 25 mM Tris pH 8.0, 100 mM KCl, 20 μM ZnSO₄, 2 mM DTT. Measurement of the intensity of the signal coming from the retention of radioactively labeled substrate was made on an audioradiogram of the nitrocellulose filter using a Typhoon Trio scanner and ImageQuant TL software.

Binder | Kd [nM]
B1 | 188
B2 | 155
